Experimental data taken from patent EP0251446B1, “Non-human Carbonyl hydrolase mutants, DNA sequences and vectors encoding same and hosts transformed with said vectors” (GENENCOR INTERNATIONAL, INC., priority 1986, dated 1988).
*1 amine or outer side, *2 acyl side, *3 side chain or, on linkers, in order; H or OH if unused. Where a SMILES comes first, the peptide text is derived from it. The star is where a group is joined. pNA = O=[N+]([O-])c1ccc(N*)cc1; Suc = O=C(CCC(=O)[*:2])[*:1]

Assays:
[1] = biological target: T1, B. amyloliquefaciens subtilisin variant G152 (Ala152 to Gly) (Bacillus amyloliquefaciens, UniProt P00782, A259G); test: Kinetics of p-nitroanilide substrate hydrolysis, G152; format: biochemical; settings: Table XII, Gly (G) at position 152; synthetic p-nitroanilide substrate with label as P-1 amino acid
T1 construct: made in house
T1 sequence (P00782 108-382 A259G): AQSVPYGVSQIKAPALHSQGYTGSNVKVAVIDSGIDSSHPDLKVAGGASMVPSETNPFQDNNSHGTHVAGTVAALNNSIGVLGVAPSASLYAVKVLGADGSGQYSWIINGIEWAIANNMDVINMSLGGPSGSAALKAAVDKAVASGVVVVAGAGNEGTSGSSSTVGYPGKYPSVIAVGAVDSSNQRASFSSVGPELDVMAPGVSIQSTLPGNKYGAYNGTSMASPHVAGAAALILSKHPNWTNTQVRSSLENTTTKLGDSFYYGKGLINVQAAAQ
Excerpt: (§1) Wild-type subtilisin was purified from B. subtilis culture supernatants expressing the B. amyloliquefaciens subtilisin gene (Wells, J.A., et al. (1983) Nucleic Acids Res. 11, 7911-7925) as previously described (Estell, D.A., et al. (1985) J. Biol. Chem. 260, 6518-6521). Details of the synthesis of tetrapeptide substrates having the form succinyl-L-AlaL-AlaL-ProL-[X]-p-nitroanilide (where X is the P1 amino acid) are described by DelMar, E.G., et al. (1979) Anal. Biochem. 99, 316-320. Kinetic parameters, Km(M) and kcat-(s-^1) were measured using a modified progress curve analysis (Estell, D.A., et al. (1985) J. Biol. Chem. 260, 6518-6521). Briefly, plots of rate versus product concentration were fit to the differential form of the rate equation using a non-linear regression algorithm. Errors in kcat and Km for all values reported are less than five percent. The various substrates in Table VIII are ranged in order of decreasing hydrophobicity. Nozaki, Y. (1971), J. Biol. Chem. 246, 2211-2217; Tanford C. (1978) Science 200, 1012).
(§2) The wild type DNA sequence was mutated by the V152/P153 primer (Figure 20, line 4) using the above restriction-purification approach for the new Kpnl site. Other mutant primers (shaded sequences Figure 20; S152, line 5 and G152, line 6) mutated the new Kpnl site away and such mutants were isolated using the restriction-selection procedure as described above for loss of the Kpnl site.
(§3) The results of these substitutions for the above synthetic substrates containing the P-1 amino acids Phe, Leu and Ala are shown in Table XII.

[2] = biological target: T2, B. amyloliquefaciens subtilisin variant S152 (Ala152 to Ser) (Bacillus amyloliquefaciens, UniProt P00782, A259S); test: Kinetics of p-nitroanilide substrate hydrolysis, S152; format: biochemical; settings: Table XII, Ser (S) at position 152; synthetic p-nitroanilide substrate with label as P-1 amino acid
T2 construct: at various amino acid residues within the mature form of the subtilisin molecule; made in house
T2 sequence (P00782 108-382 A259S): as the sequence (P00782 108-382 A259G) above, with G152S counted along it
Excerpt: as §1, §2, §3

[3] = biological target: T3, B. amyloliquefaciens subtilisin, wild type (WT, Gly166) (Bacillus amyloliquefaciens, UniProt P00782); test: Kinetics of hydrolysis of succinyl-Ala-Ala-Pro-X-p-nitroanilide substrates (progress curve analysis); format: biochemical; settings: for kcat/Kmx10^-4: Table XII, Ala (wild type) at position 152, synthetic p-nitroanilide substrate with label as P-1 amino acid
T3 construct: at various amino acid residues within the mature form of the subtilisin molecule; made in house; host or cells: Bacillus subtilis (secreted, culture supernatant)
T3 sequence (P00782 108-382): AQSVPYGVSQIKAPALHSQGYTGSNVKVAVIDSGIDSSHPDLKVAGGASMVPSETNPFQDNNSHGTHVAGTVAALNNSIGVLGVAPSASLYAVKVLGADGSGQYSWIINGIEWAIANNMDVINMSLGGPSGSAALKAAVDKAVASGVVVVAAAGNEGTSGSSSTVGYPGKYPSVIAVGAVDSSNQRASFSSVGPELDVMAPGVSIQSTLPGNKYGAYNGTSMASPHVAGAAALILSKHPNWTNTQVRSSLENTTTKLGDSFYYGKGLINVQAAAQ
Excerpt: A change in substrate specificity is defined as a difference between the kcat/Km ratio of the precursor carbonyl hydrolase and that of the hydrolase mutant. The kcat/Km ratio is a measure of catalytic efficienty. Carbonyl hydrolase mutants with increased or diminished kcat/Km ratios are described in the examples. Generally, the objective will be to secure a mutant having a greater (numerically large) kcat/Km ratio for a given substrate, thereby enabling the use of the enzyme to more efficiently act on a target substrate. A substantial change in kcat/Km ratio is preferably at least 2-fold increase or decrease. However, smaller increases or decreases in the ratio (e.g., at least 1.5-fold) are also considered substantial. An increase in kcat/Km ratio for one substrate may be accompanied by a reduction in kcat/Km ratio for another substrate. […] Km and kcat are measured in accord with known procedures, as described in EPO Publication No. 0130756 or as described herein.
as §1

[4] = substrate: C[C@H](NC(=O)CCC(=O)O)C(=O)N[C@@H](C)C(=O)N1CCC[C@H]1C(=O)N[C@@H](Cc1ccccc1)C(=O)Nc1ccc([N+](=O)[O-])cc1; test: Kinetics of p-nitroanilide substrate hydrolysis, L217; format: biochemical, B. amyloliquefaciens; settings: other: substrate sAAPFpNa; Km in M
Excerpt: as §1
Tyr217 has been substituted by all other 19 amino acids. Cassette mutagenesis as described in EPO publication No. 0130756 was used according to the protocol of Figure 22. The EcoRV restriction site was used for restriction-purification of pA217.
Since this position is involved in substrate binding, mutations here effect kinetic parameters of the enzyme. […]

[5] = substrate: C[C@H](NC(=O)CCC(=O)O)C(=O)N[C@@H](C)C(=O)N1CCC[C@H]1C(=O)N[C@@H](Cc1ccccc1)C(=O)Nc1ccc([N+](=O)[O-])cc1; test: Kinetics of p-nitroanilide substrate hydrolysis, A222; format: biochemical, B. amyloliquefaciens; settings: other: Table XIX
Excerpt: as §1
Although mutations at position 222 improve oxidation stability they also tend to increase the Km. In this case the A222 mutation was combined with the K166 mutation to give an enzyme with kcat and Km intermediate between the two parent enzymes.

[6] = substrate: C[C@H](NC(=O)CCC(=O)O)C(=O)N[C@@H](C)C(=O)N1CCC[C@H]1C(=O)N[C@@H](Cc1ccccc1)C(=O)Nc1ccc([N+](=O)[O-])cc1; test: Kinetics of p-nitroanilide substrate hydrolysis, K166/A222; format: biochemical, B. amyloliquefaciens; settings: other: Table XIX
Excerpt: as §1, with “1012). […]” for “1012).”

[7] = substrate: C[C@H](NC(=O)CCC(=O)O)C(=O)N[C@@H](C)C(=O)N1CCC[C@H]1C(=O)N[C@@H](C)C(=O)Nc1ccc([N+](=O)[O-])cc1; test: Kinetics of p-nitroanilide substrate hydrolysis, H104; format: biochemical, B. amyloliquefaciens; settings: other: Table XI
Excerpt: as §1
(§4) Tyr104 has been substituted with Ala, His, Leu, Met and Ser. The method used was a modification of the site directed mutagenesis method. According to the protocol of Figure 19, a primer (shaded in line 4) introduced a unique Hindlll site and a frame shift mutation at codon 104. Restriction-purification for the unique Hindlll site facilitated the isolation of the mutant sequence. Restriction-selection against this Hindlll site using pimers in line 5 was used to obtain position 104 mutants.
(§5) The substrates in Table XI were used to analyze the substrate specificity of these mutants.

[8] = substrate: C[C@H](NC(=O)[C@@H]1CCCN1C(=O)[C@H](C)NC(=O)[C@H](Cc1ccccc1)NC(=O)CCC(=O)O)C(=O)Nc1ccc([N+](=O)[O-])cc1; test: as above; format: biochemical, B. amyloliquefaciens; settings: other: Table XI
Excerpt: as §1, §4, §5

[9] = substrate: C[C@H](NC(=O)CCC(=O)O)C(=O)N[C@@H](C)C(=O)N1CCC[C@H]1C(=O)N[C@@H](Cc1ccccc1)C(=O)Nc1ccc([N+](=O)[O-])cc1; test: as above; format: biochemical, B. amyloliquefaciens; settings: other: Table XI
Excerpt: as §1, §4, §5

[10] = substrate: C[C@H](NC(=O)[C@H](Cc1ccccc1)NC(=O)CCC(=O)O)C(=O)N1CCC[C@H]1C(=O)N[C@@H](Cc1ccccc1)C(=O)Nc1ccc([N+](=O)[O-])cc1; test: as above; format: biochemical, B. amyloliquefaciens; settings: other: Table XI
Excerpt: as §1, §4, §5

[11] = substrate: C[C@H](NC(=O)CCC(=O)O)C(=O)N[C@@H](C)C(=O)N1CCC[C@H]1C(=O)N[C@@H](Cc1ccccc1)C(=O)Nc1ccc([N+](=O)[O-])cc1; test: Kinetics of p-nitroanilide substrate hydrolysis, deletion mutant; format: biochemical, B. amyloliquefaciens; settings: other: Table V; substrate not given; Km in M
Excerpt: The effect of deletion of residues 161 through 164 has been shown by comparing the activity of the wild type (WT) enzyme with a mutant enzyme containing this deletion as well as multiple substitutions (i.e., S153/S156/A158/G159/S160/0161-164/1165/S166/A169/R170). This produced the following results:
as §1

[12] = Table VIII, substrate succinyl-L-AlaL-AlaL-ProL-[X]-p-nitroanilide, X = label (P1 amino acid)

CC(C)C[C@H](NC(=O)[C@@H]1CCCN1C(=O)[C@H](C)NC(=O)[C@H](C)NC(=O)CCC(=O)O)C(=O)Nc1ccc([N+](=O)[O-])cc1 [Leu] (Suc-AAPL-pNA)
kcat/Kmx10^-4 [1]: 0.4
kcat/Kmx10^-4 [2]: 0.5
kcat/Kmx10^-4 [3]: 10.0

C[C@H](NC(=O)CCC(=O)O)C(=O)N[C@@H](C)C(=O)N1CCC[C@H]1C(=O)N[C@@H](CCC(=O)O)C(=O)Nc1ccc([N+](=O)[O-])cc1 [Glu] (Suc-AAPE-pNA)
kcat [3, 12]: 0.54 S^-1

C[C@H](NC(=O)CCC(=O)O)C(=O)N[C@@H](C)C(=O)N1CCC[C@H]1C(=O)N[C@@H](Cc1ccccc1)C(=O)Nc1ccc([N+](=O)[O-])cc1 [Phe] (Suc-AAPF-pNA)
kcat/Kmx10^-4 [1]: 0.2
kcat/Kmx10^-4 [2]: 1.0
kcat [3, 12]: 50 S^-1
kcat/Kmx10^-4 [3]: 40.0
kcat ([3]; Table XIII, Glu156/Gly166 (WT), synthetic substrate with label as P-1 residue): 50.00 s-^1

C[C@H](NC(=O)CCC(=O)O)C(=O)N[C@@H](C)C(=O)N1CCC[C@H]1C(=O)N[C@@H](C)C(=O)Nc1ccc([N+](=O)[O-])cc1 [Ala] (Suc-AAPA-pNA)
kcat/Kmx10^-4 [1]: <0.04
kcat/Kmx10^-4 [2]: 0.2
kcat/Kmx10^-4 [3]: 1.0

B1: B. amyloliquefaciens subtilisin variant L217 (Tyr217 to Leu) (Bacillus amyloliquefaciens; Y324L) (protein)
chain: AQSVPYGVSQIKAPALHSQGYTGSNVKVAVIDSGIDSSHPDLKVAGGASMVPSETNPFQDNNSHGTHVAGTVAALNNSIGVLGVAPSASLYAVKVLGADGSGQYSWIINGIEWAIANNMDVINMSLGGPSGSAALKAAVDKAVASGVVVVAAAGNEGTSGSSSTVGYPGKYPSVIAVGAVDSSNQRASFSSVGPELDVMAPGVSIQSTLPGNKYGALNGTSMASPHVAGAAALILSKHPNWTNTQVRSSLENTTTKLGDSFYYGKGLINVQAAAQ
notes: at various amino acid residues within the mature form of the subtilisin molecule; made in house
Km [4]: 470 µM

B2: B. amyloliquefaciens subtilisin variant A222 (Met222 to Ala) (Bacillus amyloliquefaciens; M329A) (protein)
chain: AQSVPYGVSQIKAPALHSQGYTGSNVKVAVIDSGIDSSHPDLKVAGGASMVPSETNPFQDNNSHGTHVAGTVAALNNSIGVLGVAPSASLYAVKVLGADGSGQYSWIINGIEWAIANNMDVINMSLGGPSGSAALKAAVDKAVASGVVVVAAAGNEGTSGSSSTVGYPGKYPSVIAVGAVDSSNQRASFSSVGPELDVMAPGVSIQSTLPGNKYGAYNGTSAASPHVAGAAALILSKHPNWTNTQVRSSLENTTTKLGDSFYYGKGLINVQAAAQ
notes: as for B1
Km [5]: 990 µM
kcat [5]: 42 s-^1

B3: B. amyloliquefaciens subtilisin variant K166/A222 (Bacillus amyloliquefaciens; G273K/M329A) (protein)
chain: AQSVPYGVSQIKAPALHSQGYTGSNVKVAVIDSGIDSSHPDLKVAGGASMVPSETNPFQDNNSHGTHVAGTVAALNNSIGVLGVAPSASLYAVKVLGADGSGQYSWIINGIEWAIANNMDVINMSLGGPSGSAALKAAVDKAVASGVVVVAAAGNEGTSGSSSTVKYPGKYPSVIAVGAVDSSNQRASFSSVGPELDVMAPGVSIQSTLPGNKYGAYNGTSAASPHVAGAAALILSKHPNWTNTQVRSSLENTTTKLGDSFYYGKGLINVQAAAQ
notes: as for B1
Km [6]: 200 µM
kcat [6]: 29 s-^1

B4: B. amyloliquefaciens subtilisin variant H104 (Tyr104 to His) (Bacillus amyloliquefaciens; Y211H) (protein)
chain: AQSVPYGVSQIKAPALHSQGYTGSNVKVAVIDSGIDSSHPDLKVAGGASMVPSETNPFQDNNSHGTHVAGTVAALNNSIGVLGVAPSASLYAVKVLGADGSGQHSWIINGIEWAIANNMDVINMSLGGPSGSAALKAAVDKAVASGVVVVAAAGNEGTSGSSSTVGYPGKYPSVIAVGAVDSSNQRASFSSVGPELDVMAPGVSIQSTLPGNKYGAYNGTSMASPHVAGAAALILSKHPNWTNTQVRSSLENTTTKLGDSFYYGKGLINVQAAAQ
notes: as for B1
Km [7]: 1900 µM
kcat [7]: 2.0 s-^1
kcat/Km [7]: 1000 M⁻¹ s⁻¹
Km [8]: 150 µM
kcat [8]: 2.4 s-^1
kcat/Km [8]: 16000 M⁻¹ s⁻¹
Km [9]: 710 µM
kcat [9]: 22.0 s-^1
kcat/Km [9]: 31000 M⁻¹ s⁻¹
Km [10]: 410 µM
kcat [10]: 38.0 s-^1
kcat/Km [10]: 91000 M⁻¹ s⁻¹

B5: B. amyloliquefaciens subtilisin deletion mutant S153/S156/A158/G159/S160/Δ161-164/I165/S166/A169/R170 (Bacillus amyloliquefaciens; … (protein)
chain: AQSVPYGVSQIKAPALHSQGYTGSNVKVAVIDSGIDSSHPDLKVAGGASMVPSETNPFQDNNSHGTHVAGTVAALNNSIGVLGVAPSASLYAVKVLGADGSGQYSWIINGIEWAIANNMDVINMSLGGPSGSAALKAAVDKAVASGVVVVAASGNSGAGSISYPARYPSVIAVGAVDSSNQRASFSSVGPELDVMAPGVSIQSTLPGNKYGAYNGTSMASPHVAGAAALILSKHPNWTNTQVRSSLENTTTKLGDSFYYGKGLINVQAAAQ
notes: as for B1
Km [11]: 5 µM
